The results in this text go back to the Immune Epitope Database (IEDB).

Usually IC50 stands for the midpoint of a concentration-inhibition curve. One may read the Kd as the concentration at which binding is half-saturated.

Experiment [1] deals with HLA-B*07:02. Description: IEDB peptide-MHC binding, purified MHC/competitive/radioactivity; ≥ and ≤ were set here for values at or beyond the usual limits of such assays.
Experiment [2] addresses HLA-A*02:01. Description: IEDB peptide-MHC binding, purified MHC/competitive/radioactivity; filed as Kd, often an IC50 or EC50 that approximates it; ≥ and ≤ were set here for values at or beyond the usual limits of such assays. To be noted: source organism: Human immunodeficiency virus 1.
A further experiment concerns the target HLA-A*69:01. Description: IEDB peptide-MHC binding, purified MHC/competitive/fluorescence; filed as Kd, often an IC50 or EC50 that approximates it; ≥ and ≤ were set here for values at or beyond the usual limits of such assays. The following applies: source organism: Choclo virus.
In experiment [3] the target is HLA-A*02:01. The experiment is described as above. The following applies: source organism: Choclo virus.
The next experiment addresses HLA-B*27:03. Described as above. To be noted: source organism: Choclo virus.
The target of another experiment is HLA-B*57:01. The experiment is described as above. To be noted: source organism: Choclo virus.
Another experiment has as its target HLA-B*39:01. The description is as above. To be noted: source organism: Choclo virus.
Another experiment concerns the target HLA-B*51:01. Described as above. To be noted: source organism: Choclo virus.
For a further experiment, the target named is HLA-B*35:01. The experiment is described as above. The following applies: source organism: Choclo virus.
In the next experiment the target is HLA-B*45:06. Described as above.
A further experiment deals with HLA-B*83:01. The description is as above.
The next experiment deals with HLA-B*15:42. The description is as above.
Another experiment concerns the target HLA-B*15:17. Described as above. The following applies: source organism: Choclo virus.
The target of another experiment is HLA-A*26:01. The experiment is described as above. To be noted: source organism: Choclo virus.
Another experiment has as its target HLA-A*68:23. Described as above.
In experiment [4] the target is HLA-B*15:01. The experiment is described as above. The following applies: source organism: Choclo virus.
The target in a further experiment is HLA-B*46:01. The description is as above.
The target of a further experiment is HLA-A*02:19. Description: IEDB peptide-MHC binding, purified MHC/direct/fluorescence; filed as Kd, often an IC50 or EC50 that approximates it; ≥ and ≤ were set here for values at or beyond the usual limits of such assays. To be noted: source organism: Choclo virus.
A further experiment concerns the target HLA-A*23:01. The description is as above. The following applies: source organism: Choclo virus.
In another experiment the target is HLA-A*68:02. Described as above. To be noted: source organism: Choclo virus.
Another experiment deals with HLA-A*02:03. The description is as above. The following applies: source organism: Choclo virus.
Another experiment addresses HLA-A*24:03. Described as above. To be noted: source organism: Choclo virus.
A further experiment concerns the target HLA-A*02:11. The experiment is described as above. The following applies: source organism: Choclo virus.
The target in experiment [5] is HLA-B*07:02. The description is as above.
The next experiment concerns the target HLA-A*02:16. The experiment is described as above. To be noted: source organism: Choclo virus.
The next experiment addresses HLA-A*02:12. The description is as above. The following applies: source organism: Choclo virus.
A further experiment has as its target HLA-A*03:01. The description is as above.
For another experiment, the target named is HLA-A*32:15. Description: IEDB peptide-MHC binding, purified MHC/competitive/fluorescence; filed as Kd, often an IC50 or EC50 that approximates it; ≥ and ≤ were set here for values at or beyond the usual limits of such assays. The following applies: source organism: Homo sapiens.
A further experiment addresses HLA-B*73:01. Description: IEDB peptide-MHC binding, purified MHC/direct/fluorescence; filed as Kd, often an IC50 or EC50 that approximates it; ≥ and ≤ were set here for values at or beyond the usual limits of such assays. To be noted: source organism: Mus musculus.
A further experiment addresses HLA-C*06:02. The description is as above. The following applies: source organism: Homo sapiens.
In a further experiment the target is HLA-C*07:02. Described as above. To be noted: source organism: Homo sapiens.
For another experiment, the target named is HLA-C*05:01. The experiment is described as above. To be noted: source organism: Homo sapiens.
A further experiment has as its target HLA-B*27:05. The description is as above. To be noted: source organism: SARS-CoV1.
For a further experiment, the target named is HLA-A*31:01. Described as above. To be noted: source organism: SARS-CoV1.
The next experiment addresses HLA-C*08:02. The description is as above. To be noted: source organism: SARS-CoV1.
The target of another experiment is HLA-B*40:01. The description is as above. The following applies: source organism: SARS-CoV1.
A further experiment concerns the target HLA-B*08:01. Described as above. To be noted: source organism: SARS-CoV1.
The target of the next experiment is HLA-A*11:01. Described as above. The following applies: source organism: SARS-CoV1.
Another experiment concerns the target HLA-C*14:02. The experiment is described as above. The following applies: source organism: SARS-CoV1.
For the next experiment, the target named is HLA-C*12:03. The experiment is described as above. The following applies: source organism: SARS-CoV1.
The next experiment addresses HLA-B*58:01. The experiment is described as above. To be noted: source organism: SARS-CoV1.
The next experiment addresses HLA-C*03:03. The experiment is described as above. The following applies: source organism: SARS-CoV1.
The target in experiment [6] is HLA-B*15:01. The description is as above. To be noted: source organism: SARS-CoV1.
For the next experiment, the target named is HLA-A*01:01. Described as above. To be noted: source organism: SARS-CoV1.
The next experiment concerns the target HLA-C*15:02. Described as above. The following applies: source organism: SARS-CoV1.
A further experiment concerns the target HLA-A*24:02. Description: IEDB peptide-MHC binding, purified MHC/competitive/radioactivity; ≥ and ≤ were set here for values at or beyond the usual limits of such assays. To be noted: source organism: Homo sapiens.

Consider FPVRPQVPL, for which the IC50 with HLA-B*07:02 [1] (source organism: Human immunodeficiency virus 1) is 0.016 µM. Besides, the Kd with HLA-A*02:01 [2] is at least 35 µM.
In the case of LPSSSSYSY, the Kd with HLA-A*69:01, with HLA-A*02:01 [3], in the experiment with HLA-B*27:03, with HLA-B*57:01, with HLA-B*39:01 and in the experiment with HLA-B*51:01 was at least 20 µM each time. Further, the Kd in the experiment with HLA-B*35:01 was at most 0.0001 µM; with HLA-B*45:06 (source organism: Choclo virus) it was at least 5 µM; in the experiment with HLA-B*83:01 (source organism: Choclo virus) it was 0.747 µM; with HLA-B*15:42 (source organism: Choclo virus) it was at least 5 µM; in the experiment with HLA-B*15:17, at least 20 µM; with HLA-A*26:01, at least 20 µM. Besides, the Kd with HLA-A*68:23 (source organism: Choclo virus) is 1.6 µM; with HLA-B*15:01 [4] it was at least 20 µM; with HLA-B*46:01 (source organism: Choclo virus) it was at least 20 µM; with HLA-A*02:19, at least 20 µM; in the experiment with HLA-A*23:01, at least 20 µM; with HLA-A*68:02, at least 20 µM. Further, the Kd is at least 20 µM in the experiment with HLA-A*02:03; at least 20 µM with HLA-A*24:03; at least 20 µM with HLA-A*02:11; 14 µM with HLA-B*07:02 [5] (source organism: Orthohantavirus andesense); at least 20 µM in the experiment with HLA-A*02:16; at least 20 µM in the experiment with HLA-A*02:12. This sequence also registered a Kd with HLA-A*03:01 (source organism: Choclo virus) of at least 20 µM.
In the case of MPMKGRFPI, the Kd in the experiment with HLA-A*32:15 was 0.295 µM; with HLA-B*45:06 (source organism: Homo sapiens) it was at least 5 µM; with HLA-B*83:01 (source organism: Homo sapiens), 0.069 µM; with HLA-B*15:42 (source organism: Homo sapiens), at least 5 µM; in the experiment with HLA-A*68:23 (source organism: Homo sapiens) it was 0.271 µM; with HLA-B*73:01, 6 µM. Moreover, the Kd with HLA-C*06:02, with HLA-C*07:02 and with HLA-C*05:01 was at least 20 µM throughout.
Take KSYEHQTPF: the Kd is 0.0469 µM with HLA-B*46:01 (source organism: SARS-CoV1); 4.42 µM with HLA-B*27:05; 0.186 µM with HLA-A*31:01; at least 20 µM with HLA-C*08:02; at least 91.4 µM with HLA-B*40:01; 5.72 µM with HLA-B*07:02 [5] (source organism: SARS-CoV1). For the same sequence, the Kd in the experiment with HLA-B*08:01 is 14.4 µM; with HLA-A*11:01 it was 0.837 µM; in the experiment with HLA-C*14:02, 0.093 µM; in the experiment with HLA-C*12:03, 0.014 µM; with HLA-B*58:01 it was 0.088 µM; with HLA-C*03:03, 0.035 µM. The Kd in the experiment with HLA-B*15:01 [6] is 0.169 µM; in the experiment with HLA-A*01:01, at least 27.1 µM; in the experiment with HLA-C*15:02 it was 0.011 µM; in the experiment with HLA-A*03:01 (source organism: SARS-CoV1) it was 0.0898 µM.
Take TYSVSFDSLF: the IC50 with HLA-A*24:02 was found to be 0.014 µM.
In the case of FATCGIFAL, the IC50 in the experiment with HLA-B*07:02 [1] (source organism: Lymphocytic choriomeningitis virus (strain Armstrong) (clone 53b)) was found to be 6.23 µM.
Take NYARTEDFF: the IC50 in the experiment with HLA-A*24:02 was found to be 0.067 µM.
